In patent publication US10174359 (JAPANESE FOUNDATION FOR CANCER RESEARCH, dated 2019):

Target: T1, myc-tagged mouse separase, wild-type (WT) (mouse, UniProt P60330 1-2118)
T1 construct: Studied in HeLa cell extracts by co-immunoprecipitation and immunoblot; also called wild-type separase; wild-type mouse separase; not shown: myc tag
Test: immunoprecipitation with securin from anaphase cell extract, immunoblot for separase-myc (FIG. 7A)
Method: Typically, the cell extracts are mixed with […] of agarose beads conjugated to anti-myc tag (manufactured by MBL), or protein A beads (manufactured by Bio-RAD) coupled to the desired antibodies, and incubated for 2 hr at 4° C., then washed three times with IP buffer and three times with TBS-T (150 mM sodium chloride, 20 mM Tris pH 8.0, 0.05% (v/v) Tween 20) and then subjected to analysis.
In the wild-type mouse separase replaced cell and SA mutant mouse separase replaced cell, the cell cycle arrest by Monastrol, was cancelled. Forty minutes after cancellation of the cell cycle arrest by Monastrol a cell population enriched in anaphase cells was prepared. Then, a cell extract was obtained and subjected to immunoprecipitation with cyclin B1 and securin to analyze the presence or absence of separase-myc. As a result, separase having a small molecular weight, i.e., cleaved separase, is observed.

T1 sequence (P60330 whole entry): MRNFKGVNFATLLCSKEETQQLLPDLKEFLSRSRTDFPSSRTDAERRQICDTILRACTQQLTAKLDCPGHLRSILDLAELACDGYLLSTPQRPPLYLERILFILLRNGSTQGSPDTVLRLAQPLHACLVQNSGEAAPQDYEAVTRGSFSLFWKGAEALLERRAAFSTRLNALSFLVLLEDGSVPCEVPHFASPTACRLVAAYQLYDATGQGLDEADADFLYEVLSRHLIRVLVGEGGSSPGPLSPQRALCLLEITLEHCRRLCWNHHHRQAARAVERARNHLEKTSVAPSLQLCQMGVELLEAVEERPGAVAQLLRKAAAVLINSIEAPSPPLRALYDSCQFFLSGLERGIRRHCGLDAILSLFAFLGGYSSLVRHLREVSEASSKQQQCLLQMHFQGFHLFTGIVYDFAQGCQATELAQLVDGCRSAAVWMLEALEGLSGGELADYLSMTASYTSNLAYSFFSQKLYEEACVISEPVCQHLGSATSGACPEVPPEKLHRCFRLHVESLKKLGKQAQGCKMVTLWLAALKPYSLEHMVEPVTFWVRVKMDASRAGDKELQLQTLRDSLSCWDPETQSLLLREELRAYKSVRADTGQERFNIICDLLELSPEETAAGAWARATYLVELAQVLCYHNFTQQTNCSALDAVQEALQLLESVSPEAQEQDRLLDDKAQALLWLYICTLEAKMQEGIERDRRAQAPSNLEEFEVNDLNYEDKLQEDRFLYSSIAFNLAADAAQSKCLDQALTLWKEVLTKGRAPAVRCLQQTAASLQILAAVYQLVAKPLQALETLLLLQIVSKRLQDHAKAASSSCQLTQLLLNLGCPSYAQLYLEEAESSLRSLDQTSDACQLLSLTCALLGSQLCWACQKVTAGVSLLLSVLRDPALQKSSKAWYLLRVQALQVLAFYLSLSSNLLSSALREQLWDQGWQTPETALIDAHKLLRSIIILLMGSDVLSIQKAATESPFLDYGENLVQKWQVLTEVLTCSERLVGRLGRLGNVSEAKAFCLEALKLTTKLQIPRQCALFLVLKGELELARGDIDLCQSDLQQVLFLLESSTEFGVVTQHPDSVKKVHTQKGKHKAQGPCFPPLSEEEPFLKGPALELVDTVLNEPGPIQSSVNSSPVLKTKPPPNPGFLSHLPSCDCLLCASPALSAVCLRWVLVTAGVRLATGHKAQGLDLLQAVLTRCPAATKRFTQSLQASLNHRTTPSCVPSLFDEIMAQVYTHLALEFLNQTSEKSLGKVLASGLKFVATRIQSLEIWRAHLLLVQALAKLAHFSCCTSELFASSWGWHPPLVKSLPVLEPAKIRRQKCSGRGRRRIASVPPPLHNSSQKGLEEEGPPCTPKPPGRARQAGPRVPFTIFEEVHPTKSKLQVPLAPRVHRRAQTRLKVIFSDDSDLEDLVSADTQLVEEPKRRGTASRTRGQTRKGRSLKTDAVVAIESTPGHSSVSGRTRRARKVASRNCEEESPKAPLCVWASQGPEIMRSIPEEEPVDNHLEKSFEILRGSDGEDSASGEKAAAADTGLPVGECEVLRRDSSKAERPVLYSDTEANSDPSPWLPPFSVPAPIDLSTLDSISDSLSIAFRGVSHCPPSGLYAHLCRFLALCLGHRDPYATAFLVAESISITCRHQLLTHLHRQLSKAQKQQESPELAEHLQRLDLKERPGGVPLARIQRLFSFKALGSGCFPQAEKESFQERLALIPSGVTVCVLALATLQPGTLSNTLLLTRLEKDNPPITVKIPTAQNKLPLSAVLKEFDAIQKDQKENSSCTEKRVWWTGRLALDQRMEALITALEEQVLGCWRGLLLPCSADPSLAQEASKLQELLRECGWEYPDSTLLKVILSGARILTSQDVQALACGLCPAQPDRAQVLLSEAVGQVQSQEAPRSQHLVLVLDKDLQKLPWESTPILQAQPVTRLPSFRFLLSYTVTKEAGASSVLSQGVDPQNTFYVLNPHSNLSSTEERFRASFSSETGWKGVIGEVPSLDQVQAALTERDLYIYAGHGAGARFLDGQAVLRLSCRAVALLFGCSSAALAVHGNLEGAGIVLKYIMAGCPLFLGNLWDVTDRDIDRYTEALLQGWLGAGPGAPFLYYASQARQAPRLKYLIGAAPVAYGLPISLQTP

B1: securin (other, UniProt O95997 2-202, looked up)
chain: ATLIYVDKENGEPGTRVVAKDGLKLGSGPSIKALDGRSQVSTPRFGKTFDAPPALPKATRKALGTVNRATEKSVKTKGPLKQKQPSFSAKKMTEKTVKAKSSVPASDDAYPEIEKFFPFNPLDFESFDLPEEHQIAHLPLSGVPLMILDEERELEKLFQLGPPSPVKMPSPPWESNLLQSPSSILSTLDVELPPVCCDIDI
notes: Endogenous protein in HeLa cell extracts
  binding result: binds
